Experiments:
[1] = biological target: the molecule itself; assay: AUC; sedimentation velocity, 20 °C, 42,000 rpm, 50 mM MOPS pH 7.5, 50 mM KCl, 5 mM MgCl2, 0.5 and 2.0 mg/mL protein, with 2 mM ATPγS (preincubated 55 °C 1 min)
[2] = biological target: the molecule itself; assay: AUC; sedimentation velocity, 20 °C, 42,000 rpm, 50 mM MOPS pH 7.5, 50 mM KCl, 5 mM MgCl2, 0.5 and 2.0 mg/mL protein, with 20 mM ATP (preincubated 55 °C 1 min)
[3] = biological target: the molecule itself; assay: AUC; sedimentation velocity, 20 °C, 42,000 rpm, 50 mM MOPS pH 7.5, 50 mM KCl, 5 mM MgCl2, 0.5 and 2.0 mg/mL protein, with 20 mM ADP (preincubated 55 °C 1 min)
[4] = biological target: the molecule itself; assay: native MS; incubated at 55 °C with 2 mM ATP or ATPγS for 1 min, exchanged into 150 mM ammonium acetate pH 7.5 with 100 µM ATP or ATPγS at 4 °C; nanoflow electrospray

B1: Full-length T. thermophilus ClpB (TClpB) (natural protein)
chain: not shown
notes: ClpB of Thermus thermophilus, full length, expressed from plasmid pMCB1; The protomer; it assembles into oligomers of varying size depending on the nucleotide; also called full-length TClpB; source: E. coli BL21(DE3) or KRX carrying pMCB1, purified
stoichiometry N [1]: 6
stoichiometry N [2]: 3
stoichiometry N [3]: < 6
stoichiometry N [4]: 2
